Assay results taken from patent US20140086916A1 (Merck Sharp & Dohme, published 2014).
Several values for one entry are separate records, joined by “and”; a condition that tells them apart may be missing. Equal values may be shown once. Read-outs that look alike come from different tables or passages of the source. One block for each binder: values may come before it.

Columns and labels:
[1] = biological target: T1, FcγRIIb (Pichia pastoris produced) (UniProt P31994 43-217, limits assumed); assay: fold change of the Table 12 affinities (reference row)
T1 construct: also called FcgRIIB; CD32B
T1 sequence (looked up): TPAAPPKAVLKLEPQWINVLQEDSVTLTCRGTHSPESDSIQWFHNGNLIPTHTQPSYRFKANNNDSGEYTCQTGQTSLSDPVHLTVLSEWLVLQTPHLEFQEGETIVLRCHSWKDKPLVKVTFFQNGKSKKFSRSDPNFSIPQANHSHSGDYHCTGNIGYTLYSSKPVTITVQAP
Method: (§1) Fcγ receptor binding assays were carried out as described (Shields, et al. (2001) J. Biol. Chem. 276:6591-6604) with minor modifications. High protein binding 96-well plates (Corning Costar) were coated with 100 μL per well of Fcγ receptor solutions in PBS at the following concentrations: 1 μg/mL for both FcγRI (R&D Systems) and FcγRIIa (Pichia pastoris produced), 2 μg/mL for FcγRIIb (P. pastoris produced), 0.8 μg/mL for FcγRIIIa-F158, and 0.4 μg/mL for FcγRIIIa-V158 (both P. pastoris produced). All Pichia pastoris produced receptors were expressed and purified as described (Li, et al. (2006) Nature Biotechnology 24:210-215). Monomeric antibody samples added to the FcγRI plate were serially diluted in assay diluent (1×PBS, 1% BSA, and 0.05% Tween20) and 100 μL, per well was added to the plate. Antibody samples prepared for the remaining receptors require a one hour dimerization step with half molar ratio of goat anti-human IgG F(ab′)2 F(ab′)2 that is conjugated with alkaline phosphatase for detection. These dimerized F(ab′)2/antibody complexes were also serially diluted and 100 μL per well were added to the remaining receptor plates and all plates were incubated for one hour at room temperature. FcγRI bound sample antibody was detected using the same goat anti-human IgG F(ab′)2 alkaline phosphatase conjugated F(ab′)2. Sample antibody binding was quantified by measuring excitation at 340 nm and emission at 465 nm after 18 hour incubation with SuperPhos, 4-MUP Fluorescence AP Substrate Detection System (Virolabs).

[2] = biological target: T2, FcγRIIIa-V158 (Pichia pastoris produced) (UniProt P08637 17-208, limits assumed); assay: as above
T2 construct: also called FcγRIIIA LV; FcgRIIIA LV
Method: as §1

wild-type human PCSK9 = biological target: T3, wild-type human PCSK9 (human, UniProt Q8NBP7 31-692, limits assumed); assay: SPR (Biacore T100), antibody captured by anti-human Fc, PCSK9 as analyte, 1:1 model
T3 construct: also called PCSK9 antigen
Method: The CM5 chip was immobilized on all flowcells with mouse anti-human IgG (Fc specific) according to the Biacore Human Antibody Capture Kit (Cat# BR-1008-39) to ˜7000RU. Anti-PCSK9 antibodies were captured on the chip to ˜500RU followed by analyte injections of wild-type human PCSK9 from 64.1 nM to 2.0 nM. Each flowcell was regenerated between each analyte injection with 3M MgCl for 40 seconds at 10 uL/min. Data was analyzed with Biacore T100 Evaluation Software using the 1:1 binding model using at least 5 point concentration range sensogram.

[3] = biological target: T1, FcγRIIb (Pichia pastoris produced); assay: ELISA-type plate assay, FcγR coated, antibody dimerized with AP-conjugated goat anti-human IgG F(ab')2, RFU readout
Method: as §1

[4] = biological target: T4, FcγRIIIa-F158 (Pichia pastoris produced) (UniProt P08637 17-208, limits assumed); assay: as above
T4 construct: also called FcγRIIIA LF; FcgRIIIA LF
Method: as §1

[5] = biological target: T4, FcγRIIIa-F158 (Pichia pastoris produced); assay: as above; remark: listed apart in the source
Method: as §1

[6] = biological target: T5, FcγRIIa (Pichia pastoris produced) (UniProt P12318 34-217, limits assumed); assay: as above
T5 construct: also called CD32A
T5 sequence (looked up): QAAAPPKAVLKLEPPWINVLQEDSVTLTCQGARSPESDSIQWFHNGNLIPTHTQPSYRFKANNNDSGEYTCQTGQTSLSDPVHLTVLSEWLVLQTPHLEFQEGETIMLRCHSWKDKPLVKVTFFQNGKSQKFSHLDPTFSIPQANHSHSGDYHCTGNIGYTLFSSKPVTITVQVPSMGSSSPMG
Method: as §1

[7] = biological target: T4, FcγRIIIa-F158 (Pichia pastoris produced); assay: as above; remark: listed apart in the source
Method: as §1

[8] = biological target: T4, FcγRIIIa-F158 (Pichia pastoris produced); assay: ELISA on plate-coated receptor; antibody dimerized with anti-human IgG F(ab')2-AP; ELISA IC50, YGLY23258 (dimer), Table 4 experiment
Method: as §1, with “These dimerized F(ab′)2/antibody complexes were also serially diluted and 100 μL per well were added to the remaining receptor plates and all plates were incubated for one hour at room temperature.” left out

[9] = biological target: T2, FcγRIIIa-V158 (Pichia pastoris produced); assay: as above
Method: as §1, with “These dimerized F(ab′)2/antibody complexes were also serially diluted and 100 μL per well were added to the remaining receptor plates and all plates were incubated for one hour at room temperature.” left out

[10] = biological target: T4, FcγRIIIa-F158 (Pichia pastoris produced); assay: ELISA on plate-coated receptor; antibody dimerized with anti-human IgG F(ab')2-AP; ELISA IC50, YGLY23258 (dimer), Table 5 experiment
Method: as §1, with “These dimerized F(ab′)2/antibody complexes were also serially diluted and 100 μL per well were added to the remaining receptor plates and all plates were incubated for one hour at room temperature.” left out

[11] = biological target: T2, FcγRIIIa-V158 (Pichia pastoris produced); assay: as above
Method: as §1, with “These dimerized F(ab′)2/antibody complexes were also serially diluted and 100 μL per well were added to the remaining receptor plates and all plates were incubated for one hour at room temperature.” left out

[12] = biological target: T1, FcγRIIb (Pichia pastoris produced); assay: FcγR affinity assay 'as described in Example 7', n = 3; printed as Affinity (nM) ± STDEV; Table 12 affinity (nM) assay, n = 3; not the dimer ELISA of Tables 3-7

T2 sequence (P08637 17-208 F176V limits assumed): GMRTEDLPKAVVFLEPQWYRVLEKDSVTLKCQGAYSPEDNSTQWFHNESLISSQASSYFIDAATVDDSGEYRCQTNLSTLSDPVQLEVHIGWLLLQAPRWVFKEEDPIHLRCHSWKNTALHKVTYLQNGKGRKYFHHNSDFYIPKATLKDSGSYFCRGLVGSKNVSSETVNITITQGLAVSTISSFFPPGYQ
T4 sequence (P08637 17-208 limits assumed): as the sequence (P08637 17-208 F176V limits assumed) above, with V160F counted along it

fold change in affinity vs 1F11 IgG1 GS5.0 [1]: 1 fold | fold change in affinity vs 1F11 IgG1 GS5.0 [2]: 1 fold | Kd (wild-type human PCSK9): 3.29 nM and 2.3 nM | koff (wild-type human PCSK9): 0.000499 s⁻¹ and 0.000407 s⁻¹ | kon (wild-type human PCSK9): 152000 M⁻¹ s⁻¹ and 177000 M⁻¹ s⁻¹ | EC50 (read off the curve) [3]: ~0.1 µg/mL | EC50 (read off the curve) [4]: ~0.02 µg/mL | EC50 (read off the curve) [5]: ~0.02 µg/mL | EC50 (read off the curve) [6]: ~0.06 µg/mL | EC50 (read off the curve) [7]: ~0.02 µg/mL
B1: 1F11 wildtype (parent) humanized anti-PCSK9 monoclonal IgG1 antibody (antibody)
heavy: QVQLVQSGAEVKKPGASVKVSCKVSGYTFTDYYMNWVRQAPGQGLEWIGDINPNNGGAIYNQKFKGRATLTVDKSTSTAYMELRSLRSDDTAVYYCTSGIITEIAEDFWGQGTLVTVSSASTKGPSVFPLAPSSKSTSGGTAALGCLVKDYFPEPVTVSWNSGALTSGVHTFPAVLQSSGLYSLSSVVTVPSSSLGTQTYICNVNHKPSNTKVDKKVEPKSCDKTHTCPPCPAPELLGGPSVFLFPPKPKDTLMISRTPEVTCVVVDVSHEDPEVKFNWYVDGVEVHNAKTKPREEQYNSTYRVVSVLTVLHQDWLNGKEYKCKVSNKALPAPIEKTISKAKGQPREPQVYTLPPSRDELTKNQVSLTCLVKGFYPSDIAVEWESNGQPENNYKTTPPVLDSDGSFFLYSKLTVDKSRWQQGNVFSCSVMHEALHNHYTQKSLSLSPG
light: DIQMTQSPSSLSASVGDRVTITCKASQNVGTNVVWYQQKPGKAPKALIHSASYRYSGVPSRFSGSGSGTDFTLTISSLQPEDFATYYCQQYKTYPYTFGQGTKVEIKRTVAAPSVFIFPPSDEQLKSGTASVVCLLNNFYPREAKVQWKVDNALQSGNSQESVTEQDSKDSTYSLSSTLTLSKADYEKHKVYACEVTHQGLSSPVTKSFNRGEC
notes: Produced in glycoengineered Pichia pastoris GFI5.0 (strain YGLY21351); also called 1F11 IgG1 GS5.0; YGLY21351

IC50 [8]: 0.69 µg/mL | IC50 [9]: 0.12 µg/mL | IC50 [10]: 0.94 µg/mL | IC50 [11]: 0.13 µg/mL | Kd [12]: 1690 nM
B2: 1F11 IgG1 F243A/V264A double mutein anti-PCSK9 antibody (antibody)
heavy: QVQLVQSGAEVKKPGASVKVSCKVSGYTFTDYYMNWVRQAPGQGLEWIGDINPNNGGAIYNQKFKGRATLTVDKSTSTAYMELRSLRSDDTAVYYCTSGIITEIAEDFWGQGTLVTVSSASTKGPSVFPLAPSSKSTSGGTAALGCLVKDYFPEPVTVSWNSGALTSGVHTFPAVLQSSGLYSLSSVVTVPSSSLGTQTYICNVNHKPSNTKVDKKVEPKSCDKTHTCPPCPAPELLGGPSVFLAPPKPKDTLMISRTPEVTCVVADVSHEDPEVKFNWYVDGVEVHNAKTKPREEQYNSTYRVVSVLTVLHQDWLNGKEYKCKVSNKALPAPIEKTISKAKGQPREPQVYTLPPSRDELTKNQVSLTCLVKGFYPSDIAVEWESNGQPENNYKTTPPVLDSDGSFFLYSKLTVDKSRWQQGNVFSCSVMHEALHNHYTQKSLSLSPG
light: B1 light
notes: sialylated N-glycans; also called 1F11 DM; YGLY23258
